Patent publication US9428586B2, “Heparanase splice variant” (COMPUGEN LTD, priority 2010, dated 2016)

Legend:
Src = Src phosphorylation (immunoblot, densitometry) in CAG myeloma cells; type: cell-based, human; conditions: infected CAG myeloma cells, serum-free
Method: (§1) FIG. 3. T5 augments Src phosphorylation. A. Over expression. CAG myeloma (left) and 293 (right) cells infected with heparanase (Hepa), T5, or control empty vector (Vo) were grown in the absence (−) or presence (+) of heparin (50 μg/ml) under serum-free conditions. Total cell lysates were subjected to immunoblotting applying anti-heparanase 1453 (upper and second panels), anti-phospho-Src (p-Src, third panels), anti-Src (fourth panels) anti-phospho-Erk (p-Erk, fifth panels), and anti-Erk2 (sixth panels) antibodies. Src phosphorylation index was calculated by densitometry analysis of phosphorylated Src levels divided by the total Src values. Data is presented as average fold increase ±SE of Src phosphorylation compared with control, Vo cells, set arbitrary to a value of 1 (lower panels) of five independent experiments. B. Gene silencing. Parental 293 cells were transfected with anti-heparanase, anti-T5, or control siRNAs. Total RNA was extracted and RT-PCR analysis was performed applying T5 (upper panel), heparanase (Hepa, second panel) and GAPDH (third panel) specific primers. Corresponding cell lysates were subjected to immunoblotting applying phospho-Src (p-Src, fourth panel), Src (fifth panel), phospho-Erk (p-Erk, sixth panel) and Erk2 (seventh panel) antibodies. Src phosphorylation index was calculated as above and is shown graphically in the lower panel. Note decreased Src phosphorylation levels upon T5 down regulation.
Preparation of cell lysates, protein blotting, and measurement of heparanase enzymatic activity were carried out as described previously (Zetser, A., et al., 2006, Cancer Res 66, 1455-1463; Fux, L., et al., 2009, Cancer Res 69, 1758-1767).

Binding to heparin beads = conditions: lysates of over expressing 293 cells, heparin beads
Text: FIG. 7. […] A. Cell lysates. […] B,C. Peptide analysis. […] C. Enzymatic activity.

CAG myeloma cells [1] = assay: Cell proliferation by BrdU incorporation, CAG myeloma cells; type: cell-based, human; conditions: infected CAG cells, serum-free 20 h, BrdU 2 h; control Vo 24±3%
Method: FIG. 4. T5 augments cell proliferation. A. BrdU incorporation. Morphology of control (Con), heparanase (Hepa)- and T5-infected CAG myeloma cell cultures is shown in the upper panels. […] Sub-confluent cultures of control (Vo), heparanase (Hepa)- and T5-infected CAG cells were grown in serum-free medium for 20 h followed by incubation with BrdU (1:1000) for 2 h. Cells were then fixed and immunostained with anti BrdU monoclonal antibody. Positively stained, red-brown nuclei were counted vs. blue, hematoxilin counter-stained nuclei. At least 1000 cells were counted for each cell type and the percentage of positively stained cells is noted in each panel. Fold increase in BrdU incorporation is shown graphically on the right panel. Gene silencing. 293 cells were transfected with anti-GFP (si-GFP), anti-heparanase (si-Hepa) or anti-T5 siRNA oligonucleotides and BrdU incorporation was evaluated as above except that cells were kept in serum-containing medium (lower panels). Note 2-fold decrease in BrdU incorporation following heparanase or T5 gene silencing (lower right panel). B. Colony formation in soft agar. […]
Cell proliferation was analyzed by BrdU incorporation using cell proliferation labeling reagent (1:1000, GE Healthcare), as described in Zetser, A., et al (2003 Cancer Res 63, 7733-7741). At least 1000 cells were counted for each cell type.

[2] = Heparanase activity assay of transfected 293 cell lysates on 35S-labelled ECM; type: biochemical, human
Text: FIG. 2. Cloning and expression of T5. A. RT-PCR analysis. Total RNA was extracted from the indicated cell line and subjected to RT-PCR analysis applying T5 (upper panel), heparanase (second panel) and GAPDH (third panel) specific primers, specified in the ‘Materials and Methods’ section. B. T5 transfection. […] Control cells were transfected with an empty vector (Vo). Cell lysates (left) and cell conditioned medium (right) were blotted with anti-heparanase 1453 antibody. C. Cellular localization. Stably transfected 293 cells were triple stained for Myc-tag (T5; middle, red), the ER marker calnexin (ER, left, green), and merged with cell nuclei labeled with TO-PRO (right, blue). Cells were similarly stained with anti-Myc-tag (T5; middle, red), the Golgi marker wheat germ agglutinin-FITC (Golgi, left, green) and merged with cell nuclei labeled with TO-PRO (right, blue). […] D. Enzymatic activity. 293 cells transfected with heparanase (Hepa), T5 or control empty vector (Vo) were subjected to three freeze-thaw cycles and applied onto culture dishes coated with ^35S-labelled ECM. Release of sulfate-labeled material eluted in fractions 15-30 was evaluated as measure of heparanase activity, as described in ‘Materials and Methods’. […]

CAG myeloma cells [3] = assay: CAG myeloma tumor xenograft development and immunohistochemistry; type: in vivo, athymic nude mice
Method: FIG. 5. T5 enhances tumor xenograft development. Control (Vo), heparanase-, and T5-infected CAG myeloma cells were injected subcutaneously (1×10^6/0.1 ml) and tumor volume was calculated (A). At the end of the experiment on day 37, tumors were resected, photographed (A, inset) and weighted (B). C. Immunohistochemical analysis. Paraffin-embedded 5 micron sections were stained with hematoxilin & eosin (left column), anti-CD31 (second left column), and anti-smooth muscle actin (SMA, two right columns) antibodies. Note increased blood vessels density and maturation (recruitment of SMA-positive cells) in xenografts produced by heparanase- and T5-infected cells. Cells from exponential cultures of control-, heparanase-, and T5-infected CAG myeloma cells were detached with trypsin/EDTA, washed with PBS and brought to a concentration of 1×10^7 cells/ml. Cell suspension (1×10 6/0.1 ml) was inoculated subcutaneously at the right flank of 5-weeks old female athymic nude mice (n=7). Xenograft size was determined twice a week by externally measuring tumors in two dimensions using a caliper. At the end of the experiment, mice were sacrificed and xenografts were removed, weighted and fixed in formalin. Paraffin-embedded 5 micron sections were subjected to immunostaining with anti-PECAM-1 (CD31) or anti-smooth muscle actin (1A4, Sigma) antibodies, using the Envision kit, according to the manufacturer's (Dako, Glostrup, Denmark) instructions, as described (Fux, L., et al., 2009, Cancer Res 69, 1758-1767). All animal experiments were approved by the Animal Care Committee of the Technion, Haifa, Israel.

Erk = Erk phosphorylation (immunoblot) in CAG myeloma and 293 cells; type: cell-based, human
Method: as §1, with “Note decreased Src phosphorylation levels upon T5 down regulation.” left out

B1: T5: novel splice variant of heparanase; truncated, enzymatically inactive 169 amino acid protein (protein, listed as Homo sapiens)
chain: MLLRSKPALPPPLMLLLLGPLGPLSPGALPRPAQAQDVVDLDFFTQEPLHLVSPSFLSVTIDANLATDPRFLILLGSPKLRTLARGLSPAYLRFGGTKTDFLIFDPKKESTFEERSYWQSQVNQDICKYGSIPPDVEEKLRLEWPYQEQLLLREHYQKKFKNSTYSSKK
Src phosphorylation increase vs control Vo cells (Src): comparable induction of Src phosphorylation
heparin binding of protein in cell lysates (Binding to heparin beads): failed to bind heparin
BrdU incorporation (positively stained cells) (CAG myeloma cells [1]): 52±5%
effect on the activity of endogenous heparanase ([2]; T5 vs. Vo transfected 293 cells): did not seem to significantly impinge on the activity of endogenous heparanase
heparanase enzymatic activity ([2]; lysates of stably transfected 293 cells, T5 vs. Hepa): lacks heparanase enzymatic activity
pericytes associated with blood vessels (smooth muscle actin) (CAG myeloma cells [3]; CAG xenografts, immunohistochemistry): significantly increased number of pericytes
average weight of xenografts (CAG myeloma cells [3]; day 37, subcutaneous infected CAG cells, control 58±11 mg): 738 ± 114 mg
development of tumor xenografts after day 21 vs control cells (CAG myeloma cells [3]; subcutaneous infected CAG cells): markedly enhanced
Erk phosphorylation upon over expression (Erk): not affected
